Data published in article PMC3386157, “G Protein Activation without a GEF in the Plant Kingdom” (PLoS Genetics, 2012).
Substitutions are numbered along the chain they refer to.

Assays:
Assay in all cases: SPR; BIAcore 2000; His-tagged AtRGS1 (284-459 aa) immobilised on sensor chip CM5 by amine coupling; AlF4-bound Gα flowed at 6.25-400 nM in running buffer with 20 mM NaF and 100 µM AlCl3; 25°C, 10 µl/min; 10 mM Hepes, 150 mM NaCl, 3 mM EDTA, 0.005% Tween-20, 100 µM GDP, 10 mM MgCl2; 1:1 Langmuir model
Conditions in all cases: both partners purified
AtGPA1-T194N = biological target: T1, AtGPA1-T194N (Arabidopsis thaliana, UniProt P18064 1-383, T194N)
T1 construct: Arabidopsis thaliana heterotrimeric G protein alpha subunit AtGPA1 with T194N (switch I); No tag cleavage is described; also called T194N mutant Arabidopsis Gα subunit
T1 sequence (looked up): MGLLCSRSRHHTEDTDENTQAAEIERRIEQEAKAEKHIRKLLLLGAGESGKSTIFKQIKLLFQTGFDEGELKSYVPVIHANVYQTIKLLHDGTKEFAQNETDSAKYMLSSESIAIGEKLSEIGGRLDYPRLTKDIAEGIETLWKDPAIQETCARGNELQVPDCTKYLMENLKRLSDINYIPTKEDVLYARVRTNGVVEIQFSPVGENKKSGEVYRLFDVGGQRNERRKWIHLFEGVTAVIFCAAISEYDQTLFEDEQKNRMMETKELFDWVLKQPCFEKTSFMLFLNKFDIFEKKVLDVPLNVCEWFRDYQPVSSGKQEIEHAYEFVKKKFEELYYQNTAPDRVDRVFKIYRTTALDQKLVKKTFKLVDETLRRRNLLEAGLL

OsRGA1 = biological target: T2, OsRGA1 (Oryza sativa, UniProt Q0DJ33 1-380)
T2 construct: Oryza sativa heterotrimeric G protein alpha subunit OsRGA1; cDNA synthesized with codon usage optimised for E. coli; No tag cleavage is described; also called rice Gα; wild type rice Gα subunit
T2 sequence (looked up): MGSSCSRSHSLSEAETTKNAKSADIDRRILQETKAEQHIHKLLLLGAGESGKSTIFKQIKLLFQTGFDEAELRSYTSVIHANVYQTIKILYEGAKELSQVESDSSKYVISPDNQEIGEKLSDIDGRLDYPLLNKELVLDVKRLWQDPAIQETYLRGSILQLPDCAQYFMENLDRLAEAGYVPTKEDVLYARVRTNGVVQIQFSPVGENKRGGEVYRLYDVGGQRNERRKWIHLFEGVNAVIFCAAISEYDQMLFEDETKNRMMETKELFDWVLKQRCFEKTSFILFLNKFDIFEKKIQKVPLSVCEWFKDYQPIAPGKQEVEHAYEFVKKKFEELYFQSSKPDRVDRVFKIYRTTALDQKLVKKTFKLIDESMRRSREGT

His-AtGPA1 = biological target: T3, His-AtGPA1 (Arabidopsis thaliana, UniProt P18064 1-383)
T3 construct: Arabidopsis thaliana heterotrimeric G protein alpha subunit AtGPA1; also called Arabidopsis thaliana Gα; wild type Arabidopsis Gα subunit; not shown: His6, N-terminal, kept
T3 sequence (looked up): T1 sequence (looked up) with N194T

OsRGA1-N195T = biological target: T4, OsRGA1-N195T (Oryza sativa, UniProt Q0DJ33 1-380, N195T)
T4 construct: Oryza sativa heterotrimeric G protein alpha subunit OsRGA1 with N195T (switch I); printed as N191T in two paragraphs; also called OsRGA1-N191T; 195T mutant rice Gα subunit
T4 sequence (looked up): T2 sequence (looked up) with N195T

- Kd (AtGPA1-T194N): 115 nM
- koff (AtGPA1-T194N): 0.0134 s⁻¹
- kon (AtGPA1-T194N): 117000 M⁻¹ s⁻¹
- Kd (OsRGA1): 56.7 nM
- koff (OsRGA1): 0.0217 s⁻¹
- kon (OsRGA1): 383000 M⁻¹ s⁻¹
- Kd (His-AtGPA1): 17.4 nM
- koff (His-AtGPA1): 0.00616 s⁻¹
- kon (His-AtGPA1): 353000 M⁻¹ s⁻¹
- Kd (OsRGA1-N195T): 4.83 nM
- koff (OsRGA1-N195T): 0.00584 s⁻¹
- kon (OsRGA1-N195T): 1.21e+06 M⁻¹ s⁻¹
B1: Recombinant His-AtRGS1 (284–459 aa) (domain or fragment, Arabidopsis thaliana, UniProt Q8H1F2 284-459, looked up)
chain: KEEFRPVDPNEPLDKLLLNKRFRHSFMEFADSCYAGETLHFFEEVYEHGKIPEDDSIRRIYMARHIMEKFIVAGAEMELNLSHKTRQEILTTQDLTHTDLFKNALNEVMQLIKMNLVRDYWSSIYFIKFKEEESCHEAMHKEGYSFSSPRLSSVQGSDDPFYQEHMSKSSRCSSPG
notes: Arabidopsis thaliana Regulator of G protein Signaling 1 (AtRGS1), residues 284-459
